Measured values reported in patent US9926375B2, “Anti-endoglin antibodies and uses thereof” (Tracon Pharmaceuticals, Inc., priority 2014, dated 2018).
Entries after “also recorded” stand apart in the source; their conditions may differ.

What was measured:
[1] = test system: CCl4-induced liver fibrosis model mice; experiment: Carbon tetrachloride-induced liver fibrosis model; format: in vivo, mouse; conditions: for Percentage of fibrosis area (Sirius red-positive area), comparison with isotype-matched antibody group: P<0.05, Bonferroni
Experimental: Seven-week-old female C57BL/6J mice (17˜21 g) were obtained from Japan SLC (Japan).
Mice were divided into 3 groups of 8 mice based on their body weight on the day before the start of the treatment (day 13).
Mice were intraperitoneally administered 5% CCl4 (Sigma-Aldrich, USA) in mineral oil (Sigma-Aldrich) in a volume of 100 μL twice a week (day 0, 4, 7, 11, 14, 18, 21 and 25) after acclimation.
To visualize collagen deposition, sections were cut from paraffin blocks of left lateral liver tissue prefixed in Bouin's solution and stained with picro-Sirius red solution (Waldeck, Germany). For quantitative analysis of fibrosis area, bright field images of Sirius red-stained section were randomly captured using a digital camera (DFC280; Leica Microsystems, Germany) at 100-fold magnification, and the Sirius red-stained positive areas in 5 field/section were measured using ImageJ software (National Institute of Health, USA). The quantification was done in a blinded fashion.
Statistical analyses were performed using Bonferroni Multiple comparison test on GraphPad Prism 4 (GraphPad Software, USA). P values<0.05 were considered statistically significant. Results were expressed as mean±SD.
Eight CCl4-induced liver fibrosis model mice were intravenously administered vehicle supplemented with M1043 Antibody at a dose of 10 mg/kg twice weekly at day 14, 17, 21 and 24. All animals were sacrificed on day 28.

NASH mice = experiment: Murine model of non-alcoholic steatohepatitis (NASH; STZ and high fat diet); format: in vivo, mouse
Method in brief: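 NASH induced in mice by single postnatal subcutaneous STZ plus high-fat diet from 4 weeks of age; groups of 10 dosed from day 63 with antibodies i.v. at 10 mg/kg twice weekly or telmisartan orally 10 mg/kg daily to day 84. At 12 weeks, H&E liver sections scored for NAFLD Activity Score (0–8); Bonferroni test, P<0.05.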

mouse endoglin = molecular target: T1, mouse endoglin (Mus musculus, UniProt Q63961); experiment: Inhibition of mouse BMP binding to mouse endoglin (statement, no method); conditions: statement in description
T1 sequence (Q63961 27-653): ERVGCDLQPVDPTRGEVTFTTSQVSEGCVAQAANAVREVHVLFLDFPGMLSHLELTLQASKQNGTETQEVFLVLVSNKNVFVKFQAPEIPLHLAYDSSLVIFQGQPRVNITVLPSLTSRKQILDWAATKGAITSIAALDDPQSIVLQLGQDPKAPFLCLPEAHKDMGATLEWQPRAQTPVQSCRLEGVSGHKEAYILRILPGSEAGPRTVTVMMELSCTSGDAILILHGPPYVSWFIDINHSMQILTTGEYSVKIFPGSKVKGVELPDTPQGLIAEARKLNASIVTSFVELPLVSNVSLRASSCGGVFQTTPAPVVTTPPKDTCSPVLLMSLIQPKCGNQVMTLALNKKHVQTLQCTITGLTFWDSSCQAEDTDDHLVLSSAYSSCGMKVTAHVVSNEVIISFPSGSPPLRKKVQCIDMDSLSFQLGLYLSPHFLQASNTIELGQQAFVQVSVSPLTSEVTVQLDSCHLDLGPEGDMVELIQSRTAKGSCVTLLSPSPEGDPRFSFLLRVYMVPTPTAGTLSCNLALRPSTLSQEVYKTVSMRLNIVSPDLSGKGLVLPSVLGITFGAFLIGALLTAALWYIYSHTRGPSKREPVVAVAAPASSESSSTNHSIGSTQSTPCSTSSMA

[2] = 10 mg/kg IV twice weekly, day 28, mean ± SD, n = 8
[3] = isotype-matched antibody vs disease control, M1043 Antibody vs isotype-matched antibody
[4] = liver gene expression, mean ± SD, Normal-Vehicle 1.0

B1: M1043: rat IgG1 antibody that binds mouse endoglin and competitively inhibits mouse BMP binding; VH SEQ ID NO: 124, VL SEQ ID NO: 125 (antibody, V domains shown)
VH: QVQLQQSGAELVKPGSSVKISCKASGYTFTSYDMHWIKQQPGNGLEWIGWIYPGNGNTKYNQKFNGKATLTADKSSSTAYMQLSSLTSEDSAVYFCARGKFGVGDYWGQGVMVTVSS
VL: DTVLTQSPALAVSPGERVSISCRASEGVNSYMHWYQQKPGQQPKLLIYIASNLASGVPARFSGSGSGTDFTLTIDPVEADDTATYFCQQSWNDPYTFGAGTKLELKR
Question: B1 was tested. Which “General condition / abnormal findings” value ([1]; 10 mg/kg IV twice weekly) did it give?
Answer: no abnormal findings were observed

Question: And the “Body weight on the day of sacrifice” value [1, 2]?
Answer: 20.5 ± 0.7 g

Question: And the Liver weight [1, 2]?
Answer: 896 ± 48 mg

Question: And the “Sirius red-positive area (fibrosis area)” value [1, 2]?
Answer: 2.07 ± 0.52%

Question: And the “Percentage of fibrosis area (Sirius red-positive area), comparison with isotype-matched antibody group” value ([1]; listed as Antibody M1043)?
Answer: significant reduction of collagen deposition

Question: What about the “Percentage of fibrosis area (Sirius red-positive area), comparison with isotype-matched antibody group” value ([1]; listed as M1043 Antibody) of the same molecule?
Answer: significantly decreased

Question: What about the “Collagen deposition and bridging fibrosis in Sirius red-stained liver sections” value ([1]; histology, day 28) of the same molecule?
Answer: lower collagen deposition with less frequent formation of bridging fibrosis

Question: And the “Body weight changes, comparison between groups” value [1, 3]?
Answer: no significant differences

Question: What about the “Body weight on the day of sacrifice, comparison between groups” value [1, 3] of the same molecule?
Answer: no significant differences

Question: And the “Mean liver weight, comparison between groups” value ([1]; isotype-matched antibody vs disease-control, M1043 Antibody vs isotype-matched antibody)?
Answer: no significant difference in mean body weight

Question: And the “Liver triglyceride contents compared with the NASH-Vehicle group” value (NASH mice; Bonferroni, P<0.05)?
Answer: significant decreases

Question: What about the “Mean liver weight compared with the NASH-Vehicle group” value (NASH mice; Bonferroni, P<0.05) of the same molecule?
Answer: tended to decrease

Question: And the “Mean liver-to-body weight ratio compared with the NASH-Vehicle group” value (NASH mice; Bonferroni, P<0.05)?
Answer: significant decreases

Question: What about the “NAS compared with the NASH-Vehicle group” value (NASH mice; Bonferroni, P<0.05) of the same molecule?
Answer: significant decreases in NAS; also recorded: significant reductions of NAS

Question: And the “Serum alanine aminotransferase (ALT) levels compared with the NASH-Vehicle group” value (NASH mice; Bonferroni, P<0.05)?
Answer: tended to decrease

Question: And the “Serum aspartate aminotransferase (AST) levels compared with the NASH-Vehicle group” value (NASH mice; Bonferroni, P<0.05)?
Answer: tended to decrease

Question: And the “F4/80-positive signals and cells in liver compared with the NASH-Vehicle group” value (NASH mice; F4/80 immunostaining, macrophage marker)?
Answer: Lower F4/80-positive signals and positive cells

Question: And the “Alpha-SMA mRNA expression” value (NASH mice; [4])?
Answer: 1.7 ± 0.4

Question: What about the “MCP-1 mRNA expression” value (NASH mice; [4]) of the same molecule?
Answer: 3.2 ± 2.4

Question: What about the “TIMP-1 mRNA expression” value (NASH mice; [4]) of the same molecule?
Answer: 7.6 ± 3.3

Question: What about the “TNF-α mRNA expression” value (NASH mice; [4]) of the same molecule?
Answer: 4.4 ± 1.9

Question: What about the Liver triglyceride (NASH mice; mean ± SD) of the same molecule?
Answer: 22.4 ± 5.4 mg/g liver

Question: And the “Serum ALP” value (NASH mice; mean ± SD)?
Answer: 358 ± 129 U/L

Question: What about the “Serum ALT” value (NASH mice; mean ± SD) of the same molecule?
Answer: 24 ± 4 U/L

Question: And the “Serum AST” value (NASH mice; mean ± SD)?
Answer: 76 ± 24 U/L

Question: What about the Sirius red-positive area (NASH mice; mean ± SD, liver sections) of the same molecule?
Answer: 0.86 ± 0.30%

Question: What about the “NAS (NAFLD Activity score)” value (NASH mice; mean ± SD, range 0-8, 10 mg/kg) of the same molecule?
Answer: 4.1 ± 1.0

Question: What about the “Lobular inflammation score 0, number of mice” value (NASH mice; score 0 = No Foci) of the same molecule?
Answer: 1

Question: What about the “Hepatocyte ballooning score 0, number of mice” value (NASH mice; score 0 = None) of the same molecule?
Answer: 2

Question: What about the “Steatosis score 1, number of mice” value (NASH mice; score 1 = 5-33%) of the same molecule?
Answer: 6

Question: And the “Lobular inflammation score 1, number of mice” value (NASH mice; score 1 = <2 foci/200x)?
Answer: 1

Question: What about the “Hepatocyte ballooning score 1, number of mice” value (NASH mice; score 1 = Few balloon cells) of the same molecule?
Answer: 2

Question: And the “Lobular inflammation score 2, number of mice” value (NASH mice; score 2 = 2-4 foci/200x)?
Answer: 6

Question: What about the “Steatosis score 2, number of mice” value (NASH mice; score 2 = >33-66%) of the same molecule?
Answer: 2

Question: What about the “Hepatocyte ballooning score 2, number of mice” value (NASH mice; score 2 = Many cells/prominent ballooning) of the same molecule?
Answer: 4

Question: And the “Inflammatory cell infiltration in the liver” value (NASH mice; summary of lobular inflammation score and F4/80 immunostaining)?
Answer: reductions in inflammatory cell infiltration in the liver

Question: What about the “Effect on mouse BMP binding to mouse endoglin” value (mouse endoglin) of the same molecule?
Answer: competitively inhibit mouse BMP binding
